Test results published in the DeepSol protein solubility set.

assay: soluble on expression in E. coli; label from the status in PepcDB or PDB records

Sequence | soluble on expression in E. coli
AMRQCAIYGKGGIGKSTTTQNLVAALAEMGKKVMIVGCDPKADSTRLILHSKAQNTIMEMAAEAGTVEDLELEDVLKAGYGGVKCVESGGPEPGVGCAGRGVITAINFLEEEGAYEDDLDFVFYDVLGDVVCGGFAMPIRENKAQEIYIVCSGEMMAMYAANNISKGIVKYANSGSVRLGGLICNSRNTDREDELIIALANKLGTQMIHFVPRDNVVQRAEIRRMTVIEYDPKAKQADEYRALARKVVDNKLLVIPNPITMDELEELLMEFGIMEVEDESIVGKTAEEV | soluble
AMSTQGLVQLLANAQCHLRTSTNYNGVHTQFNSALNYKNNGTNTIDGSEAWCSSIVDTNQYIVAGCEVPRTFMCVALQGRGDADQWVTSYKIRYSLDNVSWFEYRNGAAVTGVTDRNTVVNHFFDTPIRARSIAIHPLTWNGHISLRCEFYTQPVQSSVTQVGADIYTGDNCALNTGSGKREVVVPVKFQFEFATLPKVALNFDQIDCTDATNQTRIGVQPRNITTKGFDCVFYTWNENKVYSLRADYIATALE | soluble
ANEVNVYSYRQPYLIEPMLKNFEKDTGIKVNIIFADKGLVDRVKQEGELSPADVLLTVDISRVMEIVNADLAQKIDSKVLEKNIPAQFRDSNDQWFGLTTRARVIYTSKDRVGKLPAGFDYLDLAKPEYKGKVCVRSGKNSYNVSLFAAMIEHYGIEKTKAFLEGLKANLARKPQGGDRDQVKAIKEGICDYSIGNSYYYGKMLDDEKQKSWAEAAIINFPSGEHGTHKNISGVVIAKHSPNKANAVKLIEYLSGEKAQGLYAELNHEYPVKEGIEPSAIVKGWGTFKSDTIKLEDIAKNYEAALKLVDEVKFDDFSEKK | soluble
APAADAAQAHDPLSVQTGSDIPASVHMPTDQQRDYIKREVMVPMRDGVKLYTVIVIPKNARNAPILLTRTPYNAKGRANRVPNALTMREVLPQGDDVFVEGGYIRVFQDIRGKYGSQGDYVMTRPPHGPLNPTKTDETTDAWDTVDWLVHNVPESNGRVGMTGSAYEGFTVVMALLDPHPALKVAAPESPMVDGWMGDDWFHYGAFRQGAFDYFVSQMTARGGGNDIPRRDADDYTNFLKAGSAGSFATQAGLDQYPFWQRMHAHPAYDAFWQGQALDKILAQRKPTVPMLWEQGLWDQEDMWGAIHAWQALKDADVKAPNTLVMGPWRHSGVNYNGSTLGPLEFEGDTAHQYRRDVFRPFFDEYLKPGSASVHLPDAIIYNTGDQKWDYYRSWPSVCESNCTGGLTPLYLADGHGLSFTHPAADGADSYVSDPAHPVPFISRPFAFAQSSRWKPWLVQDQREAESRPDVVTYETEVLDEPVRVSGVPVADLFAATSGTDSDWVVKLIDVQPAMTPDDPKMGGYELPVSMDIFRGRYRKDFAKPEALQPDATLHYHFTLPAVNHVFAKGHRIMVQIQSSWFPLYDRNPQKFVPNIFDAKPADYTVATQSIHHGGKEATSILLPVVKQKLGPEQKLISEEDLNSAVDHHHHHH | soluble
AQAEASSAQAAQQKNFNIAAQPLQSAMLRFAEQAGMQVFFDEVKLDGMQAAALNGSMSVEQGLRRLIGGNPVAFRLQPQGQIVLSRLPTANGDGGALALDSLTVLGAGGNNANDWVYDEPRSVSVISREQMDNRPARHAADILEQTTGAYSSVSQQDPALSVNIRGIQDYGRVNMNIDGMRQNFQKSGHGQRNGTMYIDSELLSGVTIDKGTTGGMGSAGTLGGIATFNTVSASDFLAPGKELGGKLHASTGDNGTHFIGSGILALGNETGDILLAASERHLGDYWPGNKGDIGNIRINNDTGNYDRYAESIKNNKIPDTHYRMHSRLAKVGWNLPANQRLQLSYLQTQTASPIAGTLTNLGTRPPYELGWKRTGYTDVMARNAAFDYSLAPEDVDWLDFQAKLYYVDTQDDSDTYSTSSLLDNGYATRTRLRTYGAQAQNTSRFSLAPGHDFRANYGLEFYYDKATSDSSRQGMEGVTPAGNRSVASLFANLTYDYDGWLTLEGGLRYDRYRLRGQTGLSYPDLAKDGQRYTIDNPCKALRLTGCSTTTREDWDVDRDQGKLSPTLAVAVRPGVEWLELYTTYGKSWRPPAITETLTNGSAHSSSTQYPNPFLQPERSRAWEVGFNVQQPDLWFEGDRLVAKVAYFDTKVDNYINLAIDRNKPGLVQPSIGNAAYVNNLSKTRFRGLEYQLNYDAGVFYADLTYTHMIGKNEFCSNKAWLGGRLRYGDGSRRGNFYVEPDAASNDFVTCDGGTQFGSAAYLPGDRGSVTLGGRAFDRKLDAGVTVRFAPGYQDSSVPSNYPYLADWPKYTLFDLYASYKLTDSLTLRGSVENLTNRAYVVSYGETLANTLGRGRTVQGGVEYRF | soluble
AQCEATIESNDAMQYDLKEMVVDKSCKQFTVHLKHVGKMAKSAMGHNWVLTKEADKEGVATDGMNAGLAQDYVKAGDTRVIAHTKVIGGGESDSVTFDVSKLTPGEAYAYFCSFPGHWAMHKGTLKLSN | soluble
AQIDLNITCRFAGVFHVEKNGRYSISRTEAADLCKAFNSTLPTMAQMEKALSIGFETCRYGFIEGHVVIPRIHPNSICAANNTGVYILTSNTSQYDTYCFNASAPPEEDCTSVTDLPNAFDGPITITIVNRDGTRYVQKGEYRTNPEDIYPSNPTDDDV | soluble
AQVEPTVAYPHIPSNGRVAGSDRIRVTHAYVGSCTNGRITDLRDVARILKGRKVAQDVQMIVVPATQAIWKQAAQEGLLEIFVDAGASVSYPSCGACLGMHSGVLGPDDICISSSNRNFVGRMGDPSAQIYLASPATVAASAVEGFIADPRRYDAEGND | not soluble
ARLRAGFEAAGAQGVETPILQPAETLLDLYGEDIRARAYVTSDALRGEQMLRPDFTVPVVQKHMEHGAEPARYTYAGEVFRRQEHDPDRANEYIQVGYEVFDRTNPAAADAEVFALIAQALDGLALRAATGDIGILMAAVEGLKTTEPRKAALMRHIWRPRRFRALLDRYAGRTTVPPARAALLAESEPLADGAPEIGKRSRAEVEARIEVLRADAAAAPISDNEMAGLDALLSVRETMPYALEHLRDIAVDLPQITPALDRLEARIAALRARGINVDRLDFEASYGRTSMEYYDGFVFGFYAERRPDLPPIATGGRYDALTRRLGNGAEIPAVGGVLRPGLMLLLAEAE | not soluble
ASGSMQGDPDVLRLLNEQLTSELTAINQYFLHSKMQDNWGFTELAAHTRAESFDEMRHAEEITDRILLLDGLPNYQRIGSLRIGQTLREQFEADLAIEYDVLNRLKPGIVMCREKQDTTSAVLLEKIVADEEEHIDYLETQLELMDKLGEELYSAQCVSRPPTSAWSHPQFEK | soluble
ASLLARYPPEKLFQAERNFNAAQDLDVSLLEGDLVGVIKKKDPMGSQNRWLIDNGVTKGFVYSSFLKPYNPRRSHSDAS | soluble
ASMTGGQQMGRGSDSKPPYSYAQLIVQAITMAPDKQLTLNGIYTHITKNYPYYRTADKGWQNSIRHNLSLNRYFIKVPRSQEEPGKGSFWRIDPASESKLIEQAFRKRRPR | soluble
ASMTGNECPELQPPVHGKIEPSQAKYFFKDQVLVSCDTGYKVLKDNVEMDTFQIECLKDGTWSNKIPTCKIVDCRAPGELEHGLITFSTRNNLTTYKSEIKYSCQEPYYKMLNNNTGIYTCSAQGVWMNKVLGRSLPTCLPVCGLPKFSRKLMAR | soluble
ASMTTPCITILSGHFPKETIYARKTKELVEEYCSIHGYNFYYEESEPLETEEHALHFRRSWIIQQAAEKFPSTEWFLWLDSDVYVNPKNKNKPITSFIDLSDPNILYHTFHEAPWGSYPINTGVKFVHKDALEIEKIVWSLRNEAPWNTFPYEQKTVYEYVFPRIPGRYIVHDPYTLNCIVKAYPEHVKDALFVHMCGTSRAERDEHMEMVAT | soluble
ASNITRINEIIEIAVNNKRKVCLLGKSMDVNVNISRKIGLMDIDSNDIVEVRDIKNYPDRSILILCTGSQGEDSAALNTMARGKHNWVSLKSTDTIIMSSNPIPGNYAAVENLLNELSKYGVTIFENSPNMKLHASGHATQQELQLMLNLVFPRYLIPIHGEYKMMRTIKNIAQECGINGDDVGLLANGQVMYLIDGKLYYSGEVINADPIYIESRNSSPDLARVIKQRQILSREGMFAVIVVFDKNNNILGMPTLITRGCFFALDSSPLMTKITHSIKRGLENVIQNKRFNTREQMIKELKRVCKETVSYFIWKNKSRNPLISTVLSWV | soluble
ASVRVVQKNLVFVVGLSQRLADPEVLKRPEYFGKFGKIHKVVINNSTSYAGSQGPSASAYVTYIRSEDALRAIQCVNNVVVDGRTLKASLGTTKYCSY | soluble
